Assay results as given in patent publication US20140112930A1 (published 2014).

T1: Monomeric hAng-2FD (human, UniProt O15123 282-496)
T1 construct: also called fibrinogen-like domain of human Ang2; Human Ang-2FD
T1 sequence: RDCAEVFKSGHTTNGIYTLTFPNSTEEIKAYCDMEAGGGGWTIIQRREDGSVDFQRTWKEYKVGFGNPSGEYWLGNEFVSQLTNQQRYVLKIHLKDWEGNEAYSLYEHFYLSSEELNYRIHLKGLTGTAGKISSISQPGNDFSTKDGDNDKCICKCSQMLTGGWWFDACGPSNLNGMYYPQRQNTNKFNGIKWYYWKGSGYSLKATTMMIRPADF

T2: wild-type human Ang-2 (hAng-2-WT) (human, UniProt O15123 19-496)
T2 construct: called full-length wild-type; also called Full-length wild-type human Ang-2
T2 sequence: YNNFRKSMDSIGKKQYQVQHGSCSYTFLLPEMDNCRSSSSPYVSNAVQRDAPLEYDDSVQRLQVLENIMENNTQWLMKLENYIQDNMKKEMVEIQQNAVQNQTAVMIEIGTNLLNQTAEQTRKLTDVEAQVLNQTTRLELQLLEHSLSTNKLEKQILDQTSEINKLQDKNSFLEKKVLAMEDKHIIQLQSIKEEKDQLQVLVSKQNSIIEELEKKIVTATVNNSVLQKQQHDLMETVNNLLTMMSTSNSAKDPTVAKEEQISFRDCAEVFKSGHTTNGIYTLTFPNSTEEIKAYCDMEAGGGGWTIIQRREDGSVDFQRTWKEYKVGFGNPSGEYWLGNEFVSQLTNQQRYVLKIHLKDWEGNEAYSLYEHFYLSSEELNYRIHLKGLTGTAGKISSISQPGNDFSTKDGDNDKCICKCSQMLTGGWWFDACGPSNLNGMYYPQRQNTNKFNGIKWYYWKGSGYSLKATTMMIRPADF


Tests used:
Monomeric hAng-2FD = biological target: T1, Monomeric hAng-2FD; test: SPR, captured Ab
[1] = biological target: T2, wild-type human Ang-2 (hAng-2-WT); test: SPR, captured Ab
[2] = biological target: T3, Dimeric Human Ang-2FD conjugated to human IgG1 (human); test: SPR, captured Ab, RT
T3 construct: also called Human Ang-2FD-hFc; hAng-2FD-hFc
Protocol: (§1) Antibody was captured on a goat anti-mouse IgG polyclonal antibody surface, a goat anti-human κ polyclonal antibody (Southern Biotech, Birmingham, Ala.) surface or a goat anti-human IgG polyclonal antibody (Jackson Immuno Research Lab, West Grove, Pa.) surface created through direct amine coupling to a BIACORE™ CM5 sensor chip to form a captured antibody surface. […] Antigen-antibody binding and dissociation were monitored in real time at room temperature. Kinetic analysis was performed to calculate KD and half-life of antigen/antibody complex dissociation.

[3] = biological target: T4, Dimeric Mouse Ang-2FD conjugated to human IgG1 (mouse (Mus musculus); human); test: SPR, captured Ab, RT
T4 construct: also called Mouse Ang-2FD-hFc
Protocol: as §1

[4] = biological target: T5, Dimeric Monkey Ang-2FD conjugated to human IgG1 (monkey (Macca fascicularis); human); test: SPR, captured Ab, RT
T5 construct: also called Monkey Ang-2FD-hFc
Protocol: as §1

[5] = biological target: T3, Dimeric Human Ang-2FD conjugated to …; test: competition ELISA, 16.67 nM Ab, coated hTie-2-mFc
Protocol: (§2) The plate was then blocked with PBS (Irvine Scientific, Santa Ana, Calif.) containing 0.5% BSA (Sigma-Aldrich Corp., St. Louis, Mo.) for one hour at room temperature. […] Human, mouse or monkey Ang-2FD protein conjugated to human IgG (Ang-2FD-hFc) were added to final concentrations of 2 nM, 8 nM, or 2 nM respectively and incubated for one hour at room temperature. The antibody/Ang-2FD-Fc mixture was then added to the plate containing hTie-2-mFc and incubated for one hour at room temperature. Detection of Ang-2FD-hFc bound to hTie-2-mFc protein was determined with Horse-Radish Peroxidase (HRP) conjugated to a-human IgG antibody (Jackson Immuno Research Lab, West Grove, Pa.) and developed by standard colorimetric response using tetramethylbenzidine (TMB) substrate (BD Biosciences, San Jose, Calif.). Absorbance was read at OD₄₅₀ for 0.1 sec.

[6] = biological target: T4, Dimeric Mouse Ang-2FD conjugated to …; test: competition ELISA, 16.67 nM Ab, coated hTie-2-mFc
Protocol: as §2

[7] = biological target: T5, Dimeric Monkey Ang-2FD conjugated to …; test: competition ELISA, 16.67 nM Ab, coated hTie-2-mFc
Protocol: as §2

Human Ang-2FD-hFc = biological target: T6, Human Ang-2FD-hFc (human); test: blocking ELISA, 16.67 nM antibody, Ang-2FD-hFc to coated hTie-2-mFc
T6 construct: also called dimeric human Ang-2FD; human Ang-2FD protein conjugated to human IgG
Protocol: as §2

Mouse Ang-2FD-hFc = biological target: T7, Mouse Ang-2FD-hFc (mouse (Mus musculus)); test: as above
T7 construct: also called dimeric mouse Ang-2FD
Protocol: as §2

Biotin-hBA2 = biological target: T8, Biotin-hBA2 (human, biotinylated (sites not given)); test: blocking ELISA, biotin-hBA2 to hTie-2-His, mean of two experiments
T8 construct: hBA2 consists of two dimers; also called biotinylated hBA2; human bow-Ang2
Protocol: as §2
For this experiment, human Tie-2 conjugated to a histidine tag (hTie-2-His; SEQ ID NO:526) was used in a similar fashion to the hTie-2-mFc described above. Antibody concentrations from 5 nM were serially diluted three-fold. […] An average IC₅₀ value for each antibody was calculated based on two separate experiments.

Binder	Kd (Monomeric hAng-2FD)	T1/2 (Monomeric hAng-2FD)	Kd [1]	T1/2 [1]	Kd [2]	T1/2 [2]	Kd [3]	T1/2 [3]	Kd [4]	T1/2 [4]	Percent Blocking of Ang-2FD Binding to Tie-2 [5]	Percent Blocking of Ang-2FD Binding to Tie-2 [6]	Percent Blocking of Ang-2FD Binding to Tie-2 [7]	Percent Blocking of Ang-2FD Binding to Tie-2 (Human Ang-2FD-hFc)	Percent Blocking of Ang-2FD Binding to Tie-2 (Mouse Ang-2FD-hFc)	IC50 (Biotin-hBA2)
H2M742N (antibody, V domains shown) VH: DVQLLESGGDLVQPGGSLRLSCEASGFTFRNYVMIWVRQAPGKGLEWVSGISNSGGTTHYTDSVKGRFTISRDNSKNTLYLQINSLRAEDTAVYYCAKGYLDTSLIEGNWFDPWGQGTLVTVSS VL: NIVMTQSPLSLPVTPGEPASISCRSSQSLLHSNGFNYLNWFLQKPGQSPQLLIYLGSNRASGVPDKFSGSGSGTDFTLNINRVEAEDVGIYFCMQTLQTPLTFGGGTKVEIK	4810 pM	0.3 h	67.9 pM	7.28 h	295 pM	0.633 h	610 pM	0.513 h	6170 pM	0.475 h	99.6%	98.6%	94.1%			
H1H707P (antibody, human IgG1, V domains shown, Human IgG1) VH: QVQLVESGGGVVQPGRSLRLSCAASGFTFSSYGMHWVRQAPDKGLEWVAVKWDDGSNKYYADSVKGRFTISRDNSKNTLYLQMNSLRAEDTAVYYCAREGPYDFYSGYGAFDIWGQGTMVTVSS VL: not shown														95.1%	93.8%	
H1M732N (antibody, V domains shown) VH: EVQLVESGGGLVRPGGSLRLSCAASGFTFTNAWMSWVRQAPGKGLEWIGQIKSKTDGGTIDYAAPVKGRFTVSRDDSENTLFLQMNSLKTEDTAVYYCAGNWNYVDFDYWGQGTLVTVSS VL: DIQMTQSPSSLSASVGDRVTITCRASQDIRNDLGWYQQKPGKAPKRLIYAASSLQGGVPSRFSGSGSGTEFTLTISSLQPEDFATYYCLQHNSYPFTFGPGTKVDIK [H1M732N, listing 1 of 2 here]	6130 pM	0.312 h	131 pM	5.55 h	484 pM	0.592 h	1700 pM	0.357 h	7330 pM	0.402 h	97.7%	90.9%	95.8%			
H1M732N (antibody, V domains shown) VH: EVQLVESGGGLVRPGGSLRLSCAASGFTFTNAWMSWVRQAPGKGLEWIGQIKSKTDGGTIDYAAPVKGRFTVSRDDSENTLFLQMNSLKTEDTAVYYCAGNWNYVDFDYWGQGTLVTVSS VL: DIQMTQSPSSLSASVGDRVTITCRASQDIRNDLGWYQQKPGKAPKRLIYAASSLQGGVPSRFSGSGSGTEFTLTISSLQPEDFATYYCLQHNSYPFTFGPGTKVDIK [H1M732N, listing 2 of 2 here]																82.2 pM
H1M724N (antibody, V domains shown) VH: QVQLVESGGGVVQPGRSLRLSCAASGFTLSNYGMHWVRQAPGKGLEWVAVIWHDGSNTYYADSVKGRFTISRDNSKNTLYLQMNSLRAEDTAVYYCTREGLDFWSGYYPNWFDPWGQGTLVTVSS VL: DIQMTQSPSSLSASVGDRVTITCRASQGIRNDLGWYQQKPGKAPKRLIYAASNLQGGVPSRFSGSGSGTEFTLTISSLQPEDFAAYYCLQHNIYPLTFGGGTKVEIK																9.72 pM
H1M728N (antibody, V domains shown) VH: EVQLVESGGDLVQPGGSLRLSCTASGFTFSKYWMTWVRQAPGRGLEWVANIKEDGNEKYFLDSVKGRFTISRDNAKDLLFLQMNSLRGEDTAVYYCVRDRGIEVAGPFDYWGQGTLVTVSS VL: DIQMTQSPSTLSASVGDRVTVTCRASQTIINWLAWYQQKPGKAPKLLISKASSLESGVPSRFSGSGSGTEFTLTISSLQPDDFATYYCQQYNRYWTFGQGTMVEIK																14.1 pM
H2M730N (antibody, V domains shown) VH: EVQLVESGGGLVQPGGSLRLSCAASGFAFRSYWMTWVRQAPGKGLEWVANIQQDGNDKYYVDSVKGRFTISRDNAKNSLYLQMNSLRAEDTAVYYCARDTGIAEAGPFDYWGQGTLVTVSS VL: DIQMTQSPSTLSASVGDRVSITCRASQTIISWLAWYQQKPGKAPRLLIYKASSLESGVPSRFSGSGSGTEFTLTINSLQPDDFATYYCQQYNRYWTFGQGTKVEIK																14.6 pM

Results, then the binder that gave them:

Kd (Monomeric hAng-2FD)	T1/2 (Monomeric hAng-2FD)	Kd [1]	T1/2 [1]	Kd [2]	T1/2 [2]	Kd [3]	T1/2 [3]	Kd [4]	T1/2 [4]	Percent Blocking of Ang-2FD Binding to Tie-2 [5]	Percent Blocking of Ang-2FD Binding to Tie-2 [6]	Percent Blocking of Ang-2FD Binding to Tie-2 [7]	Percent Blocking of Ang-2FD Binding to Tie-2 (Human Ang-2FD-hFc)	Percent Blocking of Ang-2FD Binding to Tie-2 (Mouse Ang-2FD-hFc)	IC50 (Biotin-hBA2)	Binder
399 pM	2.61 h	14.3 pM	39.4 h	154 pM	2.78 h	882 pM	3.25 h	234 pM	2.82 h	99.6%	98.4%	95.1%				H2M743N (antibody, V domains shown) VH: EVQLLESGGGLVQPGGSLRLSCAASGFTFRKYAMSWVRQAPGKGLEWVSVISVSGGNTYYADSVKGRFTISRDNSKNTLYLQLNSLRAEDTAVYYCAKDLTDIVLMVYVDYWGQGTLVTVSS VL: DIQMTQSPSSVSASVGDRVTITCRASQDIDRWLAWYQQKPGKAPKLLIYAASSLQSGVPSRFSGSGSGTDFTLTISTLQPEDFATYYCQQANSLPFTFGGGTKVEIK
1380 pM	0.465 h	49 pM	7.98 h	165 pM	0.715 h	529 pM	0.425 h	1500 pM	0.682 h	99.5%	97.3%	97.4%				H2M749N (antibody, V domains shown, also called H1M749N; H1M749) VH: QVQLVESGGGVVQPGRSLRLSCAASGFTFSSYGMHWVRQAPGKGLEWVAVIWYDEFNKYYADSVKGRFTISRDNSKNTLYLQMNSLRAEDTAVYYCARERESGYSYGFDYWGQGTLVTVSS VL: EIVMTQSPATLSVSPGERATLSCRAGQSVSSNLAWYQQKPGQAPRLLIYGASTRATGIPARFSGSGSGTEFTLTISSLQSEDFAVYYCQQYNNWWTFGQGTKVEIK
475 pM	1.49 h	28.9 pM	14.1 h	98.9 pM	1.82 h	143 pM	3.72 h	500 pM	4.69 h	99.5%	98.4%	95.5%				H2M744N (antibody, V domains shown) VH: QVQLVQSGVEVKKPGASVKVSCKTSGYTFSNNGFSWVRQAPGQGLEWLGWISGYNGNTNYAQKFQGRVTMTTDTSTSTAYMELRTLRSDDTAVYYCARDQDYSNFHWLDPWGQGTLVTVAS VL: DIQMTQSPSSVSASVGDRVIITCRASQGLSSWLAWYQQKPGTAPKLLIHSASSLQTGVPSRFSGSGSGTEFALTINSLQPEDFGTYYCQQANSFPLTFGGGTRVEIK
